Here are results for 167 variants from the Human Domainome abundance scans (Beltran et al. 2025).

± gives the uncertainty stated by the source.

B1: Tudor domain-containing protein 3, residues 554 to 611; numbered along this chain, Q9H7E2 (parent)
chain: KMWKPGDECFALYWEDNKFYRAEVEALHSSGMTAVVKFIDYGNYEEVLLSNIKPIQTE

This data set covers variants of B1. Nature of the data set: abundance fitness (aPCA) (normalised: wild type 0, dead -1); higher = more abundant; growth selection in yeast, the domain comes from the species named. The note with it: Homo sapiens.
Turning to C9A, the abundance fitness is -0.765 ± 0.1.

Consider N17W, for which the abundance fitness is -0.716 ± 0.13. The figure for N17T is -0.366 ± 0.084; for N17S it is -0.117 ± 0.072. For N17G, the abundance fitness was -0.105 ± 0.059. For N17M, the abundance fitness is -0.191 ± 0.098.

N17H: the abundance fitness is -0.29 ± 0.15. Then N17R, with -0.084 ± 0.068. On to N17Q, for which the abundance fitness was -0.1 ± 0.092.

With N17E, the abundance fitness was -0.021 ± 0.08.

In the case of N17D, the abundance fitness stood at 0.034 ± 0.1. Regarding N17Y, the abundance fitness is -0.604 ± 0.2. N17V: the abundance fitness was -0.55 ± 0.074. As for N17F, the abundance fitness is -0.65 ± 0.23. The figure for N17I is -0.742 ± 0.16. The figure for N17C is -0.349 ± 0.16.

As for K18N, the abundance fitness was -0.228 ± 0.11. As for K18V, the abundance fitness was -0.255 ± 0.069. K18F: the abundance fitness was -0.917 ± 0.26. Then K18S, with -0.254 ± 0.067. As to K18I, the abundance fitness was -0.273 ± 0.12. Then K18T, with -0.087 ± 0.087; and K18C, with -0.188 ± 0.08; and K18P, with -0.949 ± 0.16. For K18A, the abundance fitness was -0.126 ± 0.089.

As to K18W, the abundance fitness was -0.736 ± 0.11. The figure for K18L is -0.254 ± 0.075. Then K18E, with -0.179 ± 0.087. Then K18Q, with -0.144 ± 0.086. For K18H, the abundance fitness was -0.179 ± 0.12. Then K18R, with -0.095 ± 0.056; and K18M, with -0.033 ± 0.084. Then E25R, with -0.019 ± 0.054. E25S: the abundance fitness was 0.022 ± 0.06.

Regarding E25W, the abundance fitness is -0.101 ± 0.074. Consider E25I, for which the abundance fitness was 0.011 ± 0.11.

As for E25Q, the abundance fitness came to 0.077 ± 0.075.

In the case of E25P, the abundance fitness is -0.659 ± 0.11.

Take E25H: the abundance fitness was -0.039 ± 0.1. The figure for E25L is -0.038 ± 0.06; for E25Y it is 0.046 ± 0.12. Then E25G, with -0.315 ± 0.063; and E25A, with 0.062 ± 0.079; and E25N, with -0.111 ± 0.13. Regarding E25V, the abundance fitness is 0.013 ± 0.063. With E25M, the abundance fitness was -0.025 ± 0.078. Then E25F, with -0.041 ± 0.098; and E25K, with 0.051 ± 0.1; and E25C, with -0.019 ± 0.097. For E25D, the abundance fitness stood at 0.027 ± 0.14. With F19D, the abundance fitness is -0.881 ± 0.15.

For F19G, the abundance fitness is -0.925 ± 0.077. Regarding F19L, the abundance fitness was -0.472 ± 0.08. Turning to F19E, the abundance fitness was -0.706 ± 0.099. Then F19K, with -0.85 ± 0.16. The figure for F19M is -0.386 ± 0.13; for F19S it is -0.703 ± 0.086. Regarding F19I, the abundance fitness is -0.649 ± 0.27. Turning to F19Q, the abundance fitness was -0.599 ± 0.12.

Take F19H: the abundance fitness was -0.457 ± 0.17.

F19W: the abundance fitness is -0.008 ± 0.081. For F19Y, the abundance fitness was -0.123 ± 0.14. On to F19V, for which the abundance fitness is -0.756 ± 0.082. The figure for F19T is -0.747 ± 0.12; for F19A it is -0.831 ± 0.087.

Take F19C: the abundance fitness is -1.02 ± 0.14. Then F19P, with -0.81 ± 0.13; and A22D, with -0.93 ± 0.13.

With A22M, the abundance fitness was -0.908 ± 0.16. On to A22W, for which the abundance fitness was -0.95 ± 0.12. For the variant A22V, the abundance fitness was -0.845 ± 0.069. Then A22Q, with -0.955 ± 0.15; and A22G, with -0.351 ± 0.06. For the variant A22L, the abundance fitness is -0.857 ± 0.093. Take A22C: the abundance fitness is -0.488 ± 0.12. The figure for A22H is -0.936 ± 0.21; for A22R it is -0.756 ± 0.076; for A22Y it is -0.844 ± 0.27.

With A22S, the abundance fitness is -0.637 ± 0.087. With A22P, the abundance fitness is -0.976 ± 0.14. Consider A22K, for which the abundance fitness was -1.03 ± 0.14. Then A22I, with -0.923 ± 0.36.

For the variant A22E, the abundance fitness is -1.04 ± 0.13. The figure for A22T is -0.865 ± 0.14; for A22F it is -0.977 ± 0.25; for A22N it is -0.986 ± 0.3. The figure for L27A is -0.651 ± 0.1; for A26Q it is -0.322 ± 0.2; for A26M it is -0.065 ± 0.14. In the case of A26I, the abundance fitness was -0.16 ± 0.16. Then A26Y, with -0.062 ± 0.21; and A26W, with -0.195 ± 0.12. The figure for A26E is 0.211 ± 0.17; for A26K it is 0.158 ± 0.17. The figure for A26H is -0.031 ± 0.21. For A26G, the abundance fitness is -0.068 ± 0.086. The figure for A26C is -0.063 ± 0.15. Then A26D, with -0.165 ± 0.22; and A26R, with 0.049 ± 0.083. With A26N, the abundance fitness was -0.079 ± 0.16. Then A26P, with -0.897 ± 0.2; and A26F, with 0.101 ± 0.21.

Consider A26T, for which the abundance fitness came out at 0.109 ± 0.17. The figure for A26V is -0.128 ± 0.11; for A26S it is 0.106 ± 0.095; for A26L it is -0.041 ± 0.089.

Take D7T: the abundance fitness was -0.502 ± 0.09. Then D7F, with -0.677 ± 0.15.

Consider D7A, for which the abundance fitness was -0.396 ± 0.068. Regarding D7L, the abundance fitness was -0.731 ± 0.077. For the variant D7S, the abundance fitness was -0.608 ± 0.078. Consider D7R, for which the abundance fitness was -0.762 ± 0.07. As for D7W, the abundance fitness is -0.882 ± 0.093. The figure for D7I is -0.826 ± 0.17. Then D7Q, with -0.321 ± 0.094; and D7P, with -0.706 ± 0.1. The figure for D7C is -0.573 ± 0.14; for D7Y it is -0.712 ± 0.12; for D7V it is -0.789 ± 0.079. As for D7G, the abundance fitness is -0.899 ± 0.093. D7H: the abundance fitness is -0.764 ± 0.15. The figure for D7N is -0.631 ± 0.093; for D7K it is -0.887 ± 0.12; for G6R it is -0.431 ± 0.058. In the case of G6M, the abundance fitness was -0.922 ± 0.13. For the variant G6W, the abundance fitness is -0.545 ± 0.093.

For the variant G6P, the abundance fitness was -0.985 ± 0.13. The figure for G6V is -0.928 ± 0.094; for G6N it is -0.798 ± 0.12; for G6L it is -0.836 ± 0.083. Then G6Q, with -0.832 ± 0.19. For G6Y, the abundance fitness was -0.971 ± 0.25. The figure for G6S is -0.776 ± 0.08; for G6T it is -0.919 ± 0.13. The figure for Y20N is -0.68 ± 0.18; for Y20D it is -1.01 ± 0.17; for Y20A it is -0.228 ± 0.068. Then Y20E, with -0.516 ± 0.09; and Y20M, with -0.297 ± 0.097. Y20I: the abundance fitness was -0.347 ± 0.098.

As for Y20W, the abundance fitness was -0.305 ± 0.073. In the case of Y20L, the abundance fitness was -0.171 ± 0.059. As to Y20P, the abundance fitness was -0.918 ± 0.14.

As to Y20H, the abundance fitness turned out to be 0.081 ± 0.12. Then Y20K, with 0.072 ± 0.091; and Y20S, with -0.59 ± 0.083. On to Y20C, for which the abundance fitness was -0.321 ± 0.12. Then Y20G, with -0.732 ± 0.072; and Y20F, with -0.807 ± 0.17. The figure for Y20T is -0.871 ± 0.12; for R21W it is -0.766 ± 0.093; for R21D it is -0.582 ± 0.14. With R21Q, the abundance fitness is -0.13 ± 0.1. The figure for R21A is -0.289 ± 0.067; for R21T it is -0.542 ± 0.094; for R21H it is -0.143 ± 0.089. For R21S, the abundance fitness is -0.622 ± 0.069. In the case of R21V, the abundance fitness was -0.508 ± 0.078. For the variant R21M, the abundance fitness is -0.506 ± 0.096. As to R21Y, the abundance fitness is -0.662 ± 0.11. Consider R21L, for which the abundance fitness was -0.177 ± 0.058. Consider R21I, for which the abundance fitness is -0.434 ± 0.13. The figure for R21N is -0.678 ± 0.15; for R21C it is -0.826 ± 0.11. Then R21E, with -0.301 ± 0.099. For the variant R21P, the abundance fitness is -0.206 ± 0.077.

As for R21G, the abundance fitness was -0.978 ± 0.098.
